From patent publication US20120108796A1 (Bayer, published 2012)

What follows are binders tested against T1, recombinant TFPI of the FXa restoring assay (human, mouse or rat; species not stated for Tables 9 and 10) (assay: cell-based or functional assay).

IC 50, FXa restoring assay [µg/mL]	Improvement of IC50 vs 4B7wt [fold]	Improvement of IC50 vs 2A8wt [fold]	Binder
1.46	1		4B7 wild-type Fab (Fab, V domains shown) VH: QVQLQQSGPGLVKPSQTLSLTCAISGDSVSSNSAAWSWIRQSPGRGLEWLGIIYKRSKWYNDYAVSVKSRITINPDTSKNQFSLQLNSVTPEDTAVYYCARWHSDKHWGFDYWGQGTLVTVSS VL: DIVMTQSPLSLPVTPGEPASISCRSSQSLVFSDGNTYLNWYLQKPGQSPQLLIYKGSNRASGVPDRFSGSGSGTDFTLKISRVEAEDVGVYYCQQYDSYPLTFGQGTKVEIKR
0.058	25		4B7 HC D62R (Fab, V domains shown) VH: QVQLQQSGPGLVKPSQTLSLTCAISGDSVSSNSAAWSWIRQSPGRGLEWLGIIYKRSKWYNRYAVSVKSRITINPDTSKNQFSLQLNSVTPEDTAVYYCARWHSDKHWGFDYWGQGTLVTVSS VL: DIVMTQSPLSLPVTPGEPASISCRSSQSLVFSDGNTYLNWYLQKPGQSPQLLIYKGSNRASGVPDRFSGSGSGTDFTLKISRVEAEDVGVYYCQQYDSYPLTFGQGTKVEIKR
0.7		1	2A8 wild-type Fab (Fab, V domains shown) VH: QVQLVESGGGLVQPGGSLRLSCAASGFTFRSYGMSWVRQAPGKGLEWVSSIRGSSSSTYYADSVKGRFTISRDNSKNTLYLQMNSLRAEDTAVYYCARKYRYWFDYWGQGTLVTVSS VL: DIELTQPPSVSVAPGQTARISCSGDNLRNYYAHWYQQKPGQAPVVVIYYDNNRPSGIPERFSGSNSGNTATLTISGTQAEDEADYYCQSWDDGVPVFGGGTKLTVLG
0.55		1.1	2A8 HC S35D (Fab, V domains shown) VH: QVQLVESGGGLVQPGGSLRLSCAASGFTFRSYGMDWVRQAPGKGLEWVSSIRGSSSSTYYADSVKGRFTISRDNSKNTLYLQMNSLRAEDTAVYYCARKYRYWFDYWGQGTLVTVSS VL: DIELTQPPSVSVAPGQTARISCSGDNLRNYYAHWYQQKPGQAPVVVIYYDNNRPSGIPERFSGSNSGNTATLTISGTQAEDEADYYCQSWDDGVPVFGGGTKLTVLG
0.23		3	2A8 LC D91W (Fab, V domains shown) VH: QVQLVESGGGLVQPGGSLRLSCAASGFTFRSYGMSWVRQAPGKGLEWVSSIRGSSSSTYYADSVKGRFTISRDNSKNTLYLQMNSLRAEDTAVYYCARKYRYWFDYWGQGTLVTVSS VL: DIELTQPPSVSVAPGQTARISCSGDNLRNYYAHWYQQKPGQAPVVVIYYDNNRPSGIPERFSGSNSGNTATLTISGTQAEDEADYYCQSWWDGVPVFGGGTKLTVLG
0.33		1.7	2A8 HC S31P (Fab, V domains shown) VH: QVQLVESGGGLVQPGGSLRLSCAASGFTFRPYGMSWVRQAPGKGLEWVSSIRGSSSSTYYADSVKGRFTISRDNSKNTLYLQMNSLRAEDTAVYYCARKYRYWFDYWGQGTLVTVSS VL: DIELTQPPSVSVAPGQTARISCSGDNLRNYYAHWYQQKPGQAPVVVIYYDNNRPSGIPERFSGSNSGNTATLTISGTQAEDEADYYCQSWDDGVPVFGGGTKLTVLG
0.34		1.9	2A8 LC D91K (Fab, V domains shown) VH: QVQLVESGGGLVQPGGSLRLSCAASGFTFRSYGMSWVRQAPGKGLEWVSSIRGSSSSTYYADSVKGRFTISRDNSKNTLYLQMNSLRAEDTAVYYCARKYRYWFDYWGQGTLVTVSS VL: DIELTQPPSVSVAPGQTARISCSGDNLRNYYAHWYQQKPGQAPVVVIYYDNNRPSGIPERFSGSNSGNTATLTISGTQAEDEADYYCQSWKDGVPVFGGGTKLTVLG
0.39		1.6	2A8 HC K99V (Fab, V domains shown) VH: QVQLVESGGGLVQPGGSLRLSCAASGFTFRSYGMSWVRQAPGKGLEWVSSIRGSSSSTYYADSVKGRFTISRDNSKNTLYLQMNSLRAEDTAVYYCARVYRYWFDYWGQGTLVTVSS VL: DIELTQPPSVSVAPGQTARISCSGDNLRNYYAHWYQQKPGQAPVVVIYYDNNRPSGIPERFSGSNSGNTATLTISGTQAEDEADYYCQSWDDGVPVFGGGTKLTVLG
0.35		2	2A8 HC S54F (Fab, V domains shown) VH: QVQLVESGGGLVQPGGSLRLSCAASGFTFRSYGMSWVRQAPGKGLEWVSSIRGFSSSTYYADSVKGRFTISRDNSKNTLYLQMNSLRAEDTAVYYCARKYRYWFDYWGQGTLVTVSS VL: DIELTQPPSVSVAPGQTARISCSGDNLRNYYAHWYQQKPGQAPVVVIYYDNNRPSGIPERFSGSNSGNTATLTISGTQAEDEADYYCQSWDDGVPVFGGGTKLTVLG
0.76		0.9	2A8 HC I51E (Fab, V domains shown) VH: QVQLVESGGGLVQPGGSLRLSCAASGFTFRSYGMSWVRQAPGKGLEWVSSERGSSSSTYYADSVKGRFTISRDNSKNTLYLQMNSLRAEDTAVYYCARKYRYWFDYWGQGTLVTVSS VL: DIELTQPPSVSVAPGQTARISCSGDNLRNYYAHWYQQKPGQAPVVVIYYDNNRPSGIPERFSGSNSGNTATLTISGTQAEDEADYYCQSWDDGVPVFGGGTKLTVLG
0.201		3.5	2A8 HC S31V (Fab, V domains shown) VH: QVQLVESGGGLVQPGGSLRLSCAASGFTFRVYGMSWVRQAPGKGLEWVSSIRGSSSSTYYADSVKGRFTISRDNSKNTLYLQMNSLRAEDTAVYYCARKYRYWFDYWGQGTLVTVSS VL: DIELTQPPSVSVAPGQTARISCSGDNLRNYYAHWYQQKPGQAPVVVIYYDNNRPSGIPERFSGSNSGNTATLTISGTQAEDEADYYCQSWDDGVPVFGGGTKLTVLG
0.37		1.7	2A8 LC D91L (Fab, V domains shown) VH: QVQLVESGGGLVQPGGSLRLSCAASGFTFRSYGMSWVRQAPGKGLEWVSSIRGSSSSTYYADSVKGRFTISRDNSKNTLYLQMNSLRAEDTAVYYCARKYRYWFDYWGQGTLVTVSS VL: DIELTQPPSVSVAPGQTARISCSGDNLRNYYAHWYQQKPGQAPVVVIYYDNNRPSGIPERFSGSNSGNTATLTISGTQAEDEADYYCQSWLDGVPVFGGGTKLTVLG
0.34		1.9	2A8 LC Y48F (Fab, V domains shown) VH: QVQLVESGGGLVQPGGSLRLSCAASGFTFRSYGMSWVRQAPGKGLEWVSSIRGSSSSTYYADSVKGRFTISRDNSKNTLYLQMNSLRAEDTAVYYCARKYRYWFDYWGQGTLVTVSS VL: DIELTQPPSVSVAPGQTARISCSGDNLRNYYAHWYQQKPGQAPVVVIFYDNNRPSGIPERFSGSNSGNTATLTISGTQAEDEADYYCQSWDDGVPVFGGGTKLTVLG
0.181		3.9	2A8 HC K99L (Fab, V domains shown) VH: QVQLVESGGGLVQPGGSLRLSCAASGFTFRSYGMSWVRQAPGKGLEWVSSIRGSSSSTYYADSVKGRFTISRDNSKNTLYLQMNSLRAEDTAVYYCARLYRYWFDYWGQGTLVTVSS VL: DIELTQPPSVSVAPGQTARISCSGDNLRNYYAHWYQQKPGQAPVVVIYYDNNRPSGIPERFSGSNSGNTATLTISGTQAEDEADYYCQSWDDGVPVFGGGTKLTVLG

Molecular target: T1, recombinant TFPI of the FXa restoring …
Assay: cell-based or functional assay
Remark: another data set of the same source

EC50, FXa restoring assay [nM]	Improvement of EC50 vs 2A8 wt [fold]	Binder
7.91	1	2A8 wild-type Fab (Fab, V domains shown) VH: QVQLVESGGGLVQPGGSLRLSCAASGFTFRSYGMSWVRQAPGKGLEWVSSIRGSSSSTYYADSVKGRFTISRDNSKNTLYLQMNSLRAEDTAVYYCARKYRYWFDYWGQGTLVTVSS VL: DIELTQPPSVSVAPGQTARISCSGDNLRNYYAHWYQQKPGQAPVVVIYYDNNRPSGIPERFSGSNSGNTATLTISGTQAEDEADYYCQSWDDGVPVFGGGTKLTVLG
0.44	18.2	2A8-127 (Fab, V domains shown) VH: QVQLVESGGGLVQPGGSLRLSCAASGFTFRSYGMDWVRQAPGKGLEWVSSIRGSSSSTYYADSVKGRFTISRDNSKNTLYLQMNSLRAEDTAVYYCARLYRYWFDYWGQGTLVTVSS VL: DIELTQPPSVSVAPGQTARISCSGDNLRNYYAHWYQQKPGQAPVVVIFYDVNRPSDIPERFSGSNSGNTATLTISGTQAEDEADYYCQSWDDGVPWFGGGTKLTVLG
1.08	7.3	2A8-216 (Fab, V domains shown) VH: QVQLVESGGGLVQPGGSLRLSCAASGFTFRVYGMSWVRQAPGKGLEWVSSDRGSRSSTYYADSVKGRFTISRDNSKNTLYLQMNSLRAEDTAVYYCARVYRYWFDYWGQGTLVTVSS VL: DIELTQPPSVSVAPGQTARISCSGDNLRNYYAHWYQQKPGQAPVVVIFYDNNRPSGIPERFSGSNSGNTATLTISGTQAEDEADYYCQSWLDGVPWFGGGTKLTVLG
0.5	15.8	2A8-143 (Fab, V domains shown) VH: QVQLVESGGGLVQPGGSLRLSCAASGFTFRSYGMDWVRQAPGKGLEWVSSIRGSRSSTYYADSVKGRFTISRDNSKNTLYLQMNSLRAEDTAVYYCARLYRYWFDYWGQGTLVTVSS VL: DIELTQPPSVSVAPGQTARISCSGDNLRNYYAHWYQQKPGQAPVVVIFYDVNRPSGIPERFSGSNSGNTATLTISGTQAEDEADYYCQSWLDGVPWFGGGTKLTVLG
0.81	9.7	2A8-200 (Fab, V domains shown) VH: QVQLVESGGGLVQPGGSLRLSCAASGFTFRSYGMDWVRQAPGKGLEWVSSIRGSRSSTYYADSVKGRFTISRDNSKNTLYLQMNSLRAEDTAVYYCARLYRYWFDYWGQGTLVTVSS VL: DIELTQPPSVSVAPGQTARISCSGDNLRNYYAHWYQQKPGQAPVVVIFYDVNRPSGIPERFSGSNSGNTATLTISGTQAEDEADYYCQSWWDGVPVFGGGTKLTVLG
1	7.9	2A8 HC K99L (Fab, V domains shown) VH: QVQLVESGGGLVQPGGSLRLSCAASGFTFRSYGMSWVRQAPGKGLEWVSSIRGSSSSTYYADSVKGRFTISRDNSKNTLYLQMNSLRAEDTAVYYCARLYRYWFDYWGQGTLVTVSS VL: DIELTQPPSVSVAPGQTARISCSGDNLRNYYAHWYQQKPGQAPVVVIYYDNNRPSGIPERFSGSNSGNTATLTISGTQAEDEADYYCQSWDDGVPVFGGGTKLTVLG
